In US20210032360A1 (BERLIN CHEMIE, published 2021):

B1: BST1_A2 (Fab, V domains shown)
VH: QAYLQQSGPELVKAGASVKMSCKASGYSFIEYTINWVKQSHGKSLEWIGNIDPYYGTTYYNQMFTGKATLTVDQSSNTAYMQLKSLTSEDSAVYFCARGSAWFPYWGQGTLVTVSA
VL: DIVMSQSPAIMSASPGEKVTMTCSASSSVTYMYWYQQKPGSSPRLLIYDTSNLASGVPVRFSGSGSGTSYSLTISRMEAEDTATYYCQQWSNYPLTFGAGTKLELKR
notes: they are whole murine Fab chains: bacterial leader, variable domain and constant domain, with a His tag on the heavy chain; also called anti-BST1 monoclonal antibody BST1_A2
B2: BST1_A1 (Fab, V domains shown)
VH: QVKLQQSGAELVRPGSSVKISCKASGYAFSNSWINWVKQRPGQGLEWIGQIYPGDYDTNYNGKFKGKATLTADYSSSTAYMQLNSLTSEDSAVYFCARGGSIYYGNLGFFDVWGAGTTVTVSS
VL: EMVLTQSPAIMSTSLGERVTMTCTASSRVSSSYLHWYQQKPGSSPKLWIYSTSNLASGVPARFSGSGSGTSYSLTISSMEAEDAATYYCHQYHRSPYTFGGGTKLEIKR
notes: also called anti-BST1 monoclonal antibody BST1_A1
B3: BST1_A3 (Fab, V domains shown)
VH: QVQLQQSRAELVMPGASVKMSCKTSGYTFSDYWVHWVRQRPGQGLEWIGAIDGSDTFNDYSQKFKGRATLTVDESSSTVYMQLSSLTSEDSAVYYCARGGLLQYWGQGTTLTVSS
VL: DIQLTQSPASLSASVGETVTITCRASENIYSYLAWYQQKQGKSPQLLVYNTKTLGEGVPSRFSGSGSGTQFSLKINSLQPEDFGSYYCQHHYGTPFTFGSGTKLEIKR
notes: they are whole murine Fab chains: bacterial leader, variable domain and constant domain, with a His tag on the heavy chain

The binders below were run against T1, Bone marrow stromal antigen 1 (BST1), human, on the cell surface (human, UniProt Q10588 33-293) (assay: flow cytometry on BST1-expressing H226 and A549 cells, PE-labelled secondary antibody, geometric mean fluorescence (PE GMFI); antibody concentration not given).
T1 construct: This is endogenous BST1 on A549, H226 and U937 cells and on primary MDS bone marrow cells; also called ADP-ribosyl cyclase 2; CD157
T1 sequence: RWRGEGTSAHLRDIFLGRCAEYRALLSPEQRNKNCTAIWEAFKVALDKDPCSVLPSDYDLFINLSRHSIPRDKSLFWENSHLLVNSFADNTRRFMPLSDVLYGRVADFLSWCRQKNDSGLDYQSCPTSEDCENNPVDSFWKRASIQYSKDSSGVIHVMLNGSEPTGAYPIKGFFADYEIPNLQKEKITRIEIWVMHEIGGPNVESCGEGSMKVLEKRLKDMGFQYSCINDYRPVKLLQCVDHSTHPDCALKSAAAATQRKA
Description: The specificity of antibodies against the BST1 selected in Example 2 was tested by flow cytometry. To test the ability of the antibodies to bind to the cell surface BST1 protein, the antibodies were incubated with the BST1-expressing cells, A549 and H226, from human lung adenocarcinoma and human lung squamous carcinoma, respectively. Cells were washed in FACS buffer (DPBS, 2% FBS), centrifuged and resuspended in 100 μl of the diluted primary BST1 antibody (also diluted in FACS buffer). The antibody-A549 complex was incubated on ice for 60 min and then washed twice with FACS buffer as described above. The cell-antibody pellet was resuspended in 100 μl of the diluted secondary antibody (also diluted in FACS buffer) and incubated on ice for 60 min on ice. The pellet was washed as before and resuspended in 200 μl FACS buffer. The samples were loaded onto the BD FACScanto II flow sytometer and the data analyzed using the BD FACSdiva software.

Binding result, binds:
B1
B2
B3
